In the Immune Epitope Database (IEDB):

Experiments:
HLA-B*35:01 = assay: IEDB peptide-MHC binding, purified MHC/competitive/fluorescence; filed as Kd, often an IC50 or EC50 that approximates it; ≥ and ≤ were set here for values at or beyond the usual limits of such assays; conditions: source organism: Shigella flexneri 2a str. 2457T
HLA-B*58:01 [1] = assay: as above; conditions: source organism: Shigella flexneri 2a str. 2457T
HLA-A*01:01 [2] = assay: as above; conditions: source organism: Shigella flexneri 2a str. 2457T
HLA-C*04:01 [3] = assay: IEDB peptide-MHC binding, purified MHC/direct/fluorescence; filed as Kd, often an IC50 or EC50 that approximates it; ≥ and ≤ were set here for values at or beyond the usual limits of such assays; conditions: source organism: Shigella flexneri 2a str. 2457T
HLA-C*08:02 = assay: as above; conditions: source organism: Shigella flexneri 2a str. 2457T
HLA-A*02:50 = assay: IEDB peptide-MHC binding, purified MHC/competitive/fluorescence; filed as Kd, often an IC50 or EC50 that approximates it; ≥ and ≤ were set here for values at or beyond the usual limits of such assays; conditions: source organism: Vibrio vulnificus YJ016
HLA-B*07:02 = assay: IEDB peptide-MHC binding, purified MHC/direct/fluorescence; filed as Kd, often an IC50 or EC50 that approximates it; ≥ and ≤ were set here for values at or beyond the usual limits of such assays; conditions: source organism: Vibrio vulnificus
HLA-A*02:06 [4] = assay: as above
HLA-B*58:01 [5] = assay: as above; conditions: source organism: Vibrio vulnificus
HLA-B*40:01 = assay: as above; conditions: source organism: Vibrio vulnificus
HLA-B*15:01 = assay: as above
HLA-A*02:01 [6] = assay: as above
HLA-B*08:02 = assay: as above; conditions: source organism: Vibrio vulnificus CMCP6
HLA-B*18:01 = assay: as above
HLA-A*02:12 = assay: as above
HLA-A*03:01 = assay: as above
HLA-B*27:05 [7] = assay: as above; conditions: source organism: Vibrio vulnificus
HLA-A*02:03 [8] = assay: as above; conditions: source organism: Vibrio vulnificus CMCP6
HLA-A*24:02 = assay: as above; conditions: source organism: Vibrio vulnificus
HLA-A*02:11 = assay: as above; conditions: source organism: Vibrio vulnificus CMCP6
HLA-A*11:01 = assay: as above; conditions: source organism: Vibrio vulnificus
HLA-B*08:01 = assay: as above; conditions: source organism: Vibrio vulnificus CMCP6
HLA-A*01:01 [9] = assay: as above; conditions: source organism: Vibrio vulnificus
HLA-A*02:19 = assay: as above; conditions: source organism: Vibrio vulnificus CMCP6
HLA-B*46:01 = assay: as above
HLA-B*44:02 = assay: as above; conditions: source organism: Vibrio vulnificus
HLA-A*69:01 = assay: as above; conditions: source organism: Vibrio vulnificus
HLA-A*31:01 = assay: as above; conditions: source organism: Vibrio vulnificus
HLA-C*14:02 = assay: as above; conditions: source organism: Variola virus
HLA-B*27:05 [10] = assay: IEDB peptide-MHC binding, cellular MHC/competitive/radioactivity; ≥ and ≤ were set here for values at or beyond the usual limits of such assays; conditions: source organism: Hepacivirus hominis
HLA-B*27:03 = assay: IEDB peptide-MHC binding, purified MHC/direct/fluorescence; filed as Kd, often an IC50 or EC50 that approximates it; ≥ and ≤ were set here for values at or beyond the usual limits of such assays; conditions: source organism: Salmonella enterica subsp. enterica serovar Typhimurium
HLA-B*57:01 = assay: as above; conditions: source organism: Salmonella enterica subsp. enterica serovar Typhimurium
HLA-B*83:01 = assay: IEDB peptide-MHC binding, purified MHC/competitive/fluorescence; filed as Kd, often an IC50 or EC50 that approximates it; ≥ and ≤ were set here for values at or beyond the usual limits of such assays; conditions: source organism: Acetivibrio thermocellus ATCC 27405
HLA-C*04:01 [11] = assay: as above; conditions: source organism: Acetivibrio thermocellus ATCC 27405
HLA-B*45:06 = assay: as above; conditions: source organism: Acetivibrio thermocellus ATCC 27405
HLA-B*15:42 = assay: as above; conditions: source organism: Acetivibrio thermocellus ATCC 27405
HLA-A*02:06 [12] = assay: IEDB peptide-MHC binding, purified MHC/competitive/radioactivity; ≥ and ≤ were set here for values at or beyond the usual limits of such assays; conditions: source organism: Hepatitis C virus (isolate H77)
HLA-A*02:01 [13] = assay: as above; conditions: source organism: Hepatitis C virus (isolate H77)
HLA-A*02:03 [14] = assay: as above; conditions: source organism: Hepatitis C virus (isolate H77)
HLA-A*02:02 = assay: as above; conditions: source organism: Hepatitis C virus (isolate H77)
[15] = source organism: Vibrio vulnificus CMCP6
[16] = source organism: Vibrio vulnificus
[17] = source organism: Salmonella enterica subsp. enterica serovar Typhimurium

MSPDNALIY
Kd (HLA-B*35:01): 7.2 nM
Kd (HLA-B*58:01 [1]): 457 nM
Kd (HLA-A*01:01 [2]): 89.9 nM
Kd (HLA-C*04:01 [3]): ≥ 20000 nM
Kd (HLA-C*08:02): ≥ 20000 nM

GLKELGDWV
Kd (HLA-A*02:50): ≤ 0.1 nM
Kd (HLA-B*07:02): ≥ 20000 nM
Kd (HLA-A*02:06 [4]; [15]): 145 nM
Kd (HLA-B*58:01 [5]): ≥ 20000 nM
Kd (HLA-B*40:01): ≥ 20000 nM
Kd (HLA-B*15:01; [16]): ≥ 20000 nM
Kd (HLA-A*02:01 [6]; [16]): 637 nM
Kd (HLA-B*08:02): ≥ 20000 nM
Kd (HLA-B*18:01; [16]): ≥ 20000 nM
Kd (HLA-A*02:12; [15]): 120 nM
Kd (HLA-A*03:01; [16]): ≥ 20000 nM
Kd (HLA-B*27:05 [7]): ≥ 20000 nM
Kd (HLA-A*02:03 [8]): 2 nM
Kd (HLA-A*24:02): ≥ 20000 nM
Kd (HLA-A*02:11): 9 nM
Kd (HLA-A*11:01): ≥ 20000 nM
Kd (HLA-B*08:01): ≥ 20000 nM
Kd (HLA-A*01:01 [9]): ≥ 20000 nM
Kd (HLA-A*02:19): ≥ 20000 nM
Kd (HLA-B*46:01; [16]): ≥ 20000 nM
Kd (HLA-B*44:02): ≥ 20000 nM
Kd (HLA-A*69:01): ≥ 5000 nM
Kd (HLA-A*31:01): ≥ 20000 nM

VIYEAVIHL
Kd (HLA-C*14:02): 195 nM

ARHTPVNSW
IC50 (HLA-B*27:05 [10]): 338 nM

QVNDVLHSV
Kd (HLA-A*02:06 [4]; [17]): 3 nM
Kd (HLA-B*15:01; [17]): ≥ 20000 nM
Kd (HLA-A*02:01 [6]; [17]): 41 nM
Kd (HLA-B*18:01; [17]): ≥ 20000 nM
Kd (HLA-B*27:03): ≥ 20000 nM
Kd (HLA-A*02:12; [17]): 91 nM
Kd (HLA-A*03:01; [17]): ≥ 20000 nM
Kd (HLA-B*57:01): ≥ 20000 nM
Kd (HLA-B*46:01; [17]): ≥ 20000 nM

TVIDVNTGK
Kd (HLA-B*83:01): ≥ 5000 nM
Kd (HLA-C*04:01 [11]): ≥ 5000 nM
Kd (HLA-B*45:06): ≥ 5000 nM
Kd (HLA-B*15:42): ≥ 5000 nM

KLVGLGLNAV
IC50 (HLA-A*02:06 [12]): 9 nM
IC50 (HLA-A*02:01 [13]): 17 nM
IC50 (HLA-A*02:03 [14]): 8.2 nM
IC50 (HLA-A*02:02): 14 nM
